Measured values published in publication PMC3553968 (Nucleic Acids Research, 2012).

B1: Flag-Noc2p (natural protein)
chain: MGKVSKSTKKFQSKHLKHTLDQRRKEKIQKKRIQGRRGNKTDQEKADAAGTREQQQLKKSAKEEVFKDMSVETFFEKGIEIPKENKKLKKKTTKEQSDEDSSSSEEEEDMGQSMAKLAEKDPEFYKYLEENDKDLLDFAGTNPLDGIDSQDEGEDAERNSNIEEKSEQMELEKEKIELSLKLVRKWKKQLHDSPSLKLLRNIISAFKVAVNLNKEENIEDYKYAITDEKAFHELMFMVLKDVPQAIQKMAPYKIVKGARTLPNGGNVSRVSSIVKSHAGSLLILLNDITNTETAALVLHSVNELMPYLLSYRRILKELIKSIVGVWSTTRELETQIASFAFLINTTKEFKKSMLETTLKTTYSTFIKSCRKTNMRSMPLINFQKNSAAELFGIDEVLGYQVGFEYIRQLAIHLRNTMNATTKKSSKINSAEAYKIVYNWQFCHSLDFWSRVLSFACQPEKENGSESPLRQLIYPLVQVTLGVIRLIPTPQFFPLRFYLIKSLIRLSQNSGVFIPIYPLLSEILTSTAFTKAPKKSPNLAAFDFEHNIKCTQAYLNTKIYQEGLSEQFVDLLGDYFALYCKNIAFPELVTPVIISLRRYIKTSTNVKLNKRLSTVVEKLNQNSTFIQEKRSDVEFGPTNKSEVSRFLNDVAWNKTPLGSYVAVQREVKEEKARLMRESMEEQDKERETEEAKLLNSLESDDDNEDVEMSDA
B2: Noc1p (recombinant, untagged) (natural protein)
chain: MSENNGNPLDLSSLRNKISSKLRDNNSKKAKKTHKGKDVKASSNSKKVNEDIRREALALGASEEDLKLIQGLSDDDDAKSEQEFDAVADEDADDKGFKNDLQNFMKNVGFDQHKLEDVDDDDIEEESTSSKESKIPAQEKEHAQSNIASSTIEKTSQESIDNGSEQEENTVEEANLSSDQEPESESAEKEKKEEKDGGLITQTTIISSDKLIIPYDKPWYEIPLDPQVGQNDDVEELSKEQIEKLFERGKQTLEADNQTYYEEFTKDSSQAKFMSQILSDGTLNDKISAVTLLIQDSPLHNTKSLETLVSYCGKKSRNSALQSLNALKDLFLNGLLPNRKLRYFKNQPGLSMMLNKKTLAIFYFEDYLKKLFFRVLEVLEVLSHDPIIHVRLQILNHVFDLLTNQPEQEFNLLRLGVNKIGDIDSKVSSKASYLLLKLEQAHPNMKSIVIDAIVDIALRPNADYHTTYYSVITLNQTILKRSEDSVANKLVKTYFTLFEKFLINTDKDNTNGVVKSNSKSYEEKRKKNFKKGKHGGKSVKIEKTENEVLDEKNSKLFSALLTGINRAFPFAQIPASVYEVHMETLFKITHSSNFNTSIQALVLINQVTVKAKLNSDRYYRTLYESLFDPRLVNSSKQGIYLNLLYKSLKQDALNVERVEAFVKRILQVCSHWLNVGTITGFFFLLIQLAKTVPQIKNLLTNTPVDYEYESDAEEEQGDKDIKRKEYDGRKRDPKFANAEKSSLWEINNFINHFHPTVKTYANAYVTGETEQIAKPDLGLFTLSHFLDRFVYRSAKQTNTARGTSIMQPLFSGSRVNDSVLVKASDIMHDQGPVNTEDWLTKKVEDIKPEDKFFYQYFTTKKTADGKGKKSNKASNFDSDDEMDENEIWSALVKSRPDVEDDSDDSELDFAEDDFSDSTSDDEPKLDAIDDEDAKSEGSQESDQEEGLDEDIFYSFDGEQDNSDKKRSFAESSEEDESSEEEKEEEENKEVSAKRAKKKQRKNMLKSLPVFASADDYAQYLDQDSD

Tests used:
[1] = target: B2; test: SEC
[2] = target: HA-Rrp5p (S. cerevisiae, UniProt Q05022 1-1729); test: SEC
Chain of HA-Rrp5p (Q05022 whole entry): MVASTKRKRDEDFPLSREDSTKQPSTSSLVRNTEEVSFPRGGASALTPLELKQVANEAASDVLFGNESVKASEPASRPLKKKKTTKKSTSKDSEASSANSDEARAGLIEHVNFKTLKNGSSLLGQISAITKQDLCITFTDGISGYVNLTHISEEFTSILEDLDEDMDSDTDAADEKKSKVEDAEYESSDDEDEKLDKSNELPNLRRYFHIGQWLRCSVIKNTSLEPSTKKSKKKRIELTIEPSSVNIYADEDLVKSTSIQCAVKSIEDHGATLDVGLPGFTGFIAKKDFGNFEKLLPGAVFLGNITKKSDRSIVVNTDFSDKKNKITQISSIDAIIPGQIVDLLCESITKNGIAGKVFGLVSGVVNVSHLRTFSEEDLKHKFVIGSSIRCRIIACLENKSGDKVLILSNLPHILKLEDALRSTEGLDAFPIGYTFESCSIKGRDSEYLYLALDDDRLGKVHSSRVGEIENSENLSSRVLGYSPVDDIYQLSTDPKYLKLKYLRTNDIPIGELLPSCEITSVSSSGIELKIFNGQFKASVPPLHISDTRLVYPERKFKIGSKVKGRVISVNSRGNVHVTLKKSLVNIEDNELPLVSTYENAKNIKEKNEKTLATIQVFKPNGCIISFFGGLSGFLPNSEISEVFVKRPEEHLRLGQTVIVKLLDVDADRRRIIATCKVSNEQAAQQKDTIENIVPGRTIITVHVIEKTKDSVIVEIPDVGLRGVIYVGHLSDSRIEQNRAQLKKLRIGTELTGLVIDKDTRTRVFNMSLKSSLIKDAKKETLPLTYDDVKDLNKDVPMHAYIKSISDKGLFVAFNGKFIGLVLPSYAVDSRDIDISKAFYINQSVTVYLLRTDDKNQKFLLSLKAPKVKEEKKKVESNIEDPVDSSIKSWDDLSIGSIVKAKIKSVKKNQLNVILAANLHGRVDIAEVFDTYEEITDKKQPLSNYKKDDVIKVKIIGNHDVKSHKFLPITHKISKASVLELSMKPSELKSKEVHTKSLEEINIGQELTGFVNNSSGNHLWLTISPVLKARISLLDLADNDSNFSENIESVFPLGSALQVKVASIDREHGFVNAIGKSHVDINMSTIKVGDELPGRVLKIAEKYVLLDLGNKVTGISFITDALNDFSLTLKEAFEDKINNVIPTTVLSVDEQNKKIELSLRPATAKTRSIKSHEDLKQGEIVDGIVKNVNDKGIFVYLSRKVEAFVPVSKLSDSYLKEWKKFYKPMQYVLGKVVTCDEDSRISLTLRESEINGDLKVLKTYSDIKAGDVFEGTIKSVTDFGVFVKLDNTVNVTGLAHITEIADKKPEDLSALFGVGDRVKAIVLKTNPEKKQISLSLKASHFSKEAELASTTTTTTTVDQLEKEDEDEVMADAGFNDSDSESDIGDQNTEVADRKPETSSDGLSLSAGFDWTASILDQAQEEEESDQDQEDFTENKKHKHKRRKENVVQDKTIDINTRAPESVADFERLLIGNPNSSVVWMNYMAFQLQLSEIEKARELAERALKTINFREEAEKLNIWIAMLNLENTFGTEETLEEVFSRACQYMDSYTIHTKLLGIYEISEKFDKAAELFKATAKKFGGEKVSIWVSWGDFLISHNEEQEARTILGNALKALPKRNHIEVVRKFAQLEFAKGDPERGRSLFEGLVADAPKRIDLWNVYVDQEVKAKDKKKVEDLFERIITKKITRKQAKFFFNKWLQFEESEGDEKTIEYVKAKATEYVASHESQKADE

| binding result [1] | binding result [2] | Binder |
| --- | --- | --- |
| binds |  | B1 |
|  | binds | B2 |
